PMC9426524

Substrate: CC(=O)C=O
Experiment: purified protein

B1: (Homo sapiens) (protein)
chain: MASKRALVILAKGAEEMETVIPVDVMRRAGIKVTVAGLAGKDPVQCSRDVVICPDASLEDAKKEGPYDVVVLPGGNLGAQNLSESAAVKEILKEQENRKGLIAAICAGPTALLAHEIGFGSKVTTHPLAKDKMMNGGHYTYSENRVEKDGLILTSRGPGTSFEFALAIVEALNGKEVAAQVKAPLVLKD
Question: How did the Km turn out when B1 was run?
Answer: The Km was 340 ± 40 µM.

Question: And the kcat?
Answer: Its kcat is 0.126 ± 0.004 s⁻¹.
